Laboratory results taken from patent US20150210998A1.
No end group written: not given here.

Target: His6-E6AP ligase (full-length, baculovirus-expressed) (human) (UniProt Q05086)
Experiment: inhibition of His6-E6AP-catalyzed 125I-polyubiquitin chain formation, semi-reciprocal plot; non-competitive versus UbcH7

Ki: 22 µM
Binder: Ac-NRIRMYSERRITVLYSL [N-acetyl-… peptide]
